The source of these data is US20210238260.

Changes are numbered by the printed parent chain. Names and notes keep the numbering of the source.

Sequences and labels used below:
B1: FIXa-Y155F/R338E/T343R/R403E (protein)
chain 1: YNSGKLEEFVQGNLERECMEEKCSFEEAREVFENTERTTEFWKQYVDGDQCESNPCLNGGSCKDDINSYECWCPFGFEGKNCELDVTCNIKNGRCEQFCKNSADNKVVCSCTEGYRLAENQKSCEPAVPFPCGRVSVSQTSKLTR
chain 2: VVGGEDAKPGQFPWQVVLNGKVDAFCGGSIVNEKWIVTAAHCVETGVKITVVAGEHNIEETEHTEQKRNVIRIIPHHNYNAAINKYNHDIALLELDEPLVLNSYVTPICIADKEYTNIFLKFGSGYVSGWGRVFHKGRSALVLQYLRVPLVDRATCLESTKFRIYNNMFCAGFHEGGRDSCQGDSGGPHVTEVEGTSFLTGIISWGEECAMKGKYGIYTKVSEYVNWIKEKTKLT
B2: FIXa-Y155F/I251S/R338E/T343R/R403E (protein)
chain 1: B1 chain 1
chain 2: B1 chain 2 with I71S
B3: FIXa-Y155F/N260S/R338E/T343R/R403E (protein)
chain 1: B1 chain 1
chain 2: B1 chain 2 with N80S
B4: FIXa-Y155F/K247N/N249S/R338E/T343R/R403E/E410N (protein)
chain 1: B1 chain 1
chain 2: B1 chain 2 with K67N, N69S, E230N
B5: FIXa-K247N/N249S/R318Y/R338E/T343R/R403E (protein)
chain 1: B1 chain 1
chain 2: B1 chain 2 with K67N, N69S, R138Y
B6: FIXa-Y155F/R338E/T343R/R403E/E410S (protein)
chain 1: B1 chain 1
chain 2: B1 chain 2 with E230S
B7: FIXa-Y155F/K247N/N249S/T343R/R403E (protein)
chain 1: B1 chain 1
chain 2: B1 chain 2 with K67N, N69S, E158R
B8: FIXa-K247N/N249S/R338E/T343R/R403E/E410N (protein)
chain 1: B1 chain 1
chain 2: B1 chain 2 with K67N, N69S, E230N
B9: FIXa-Y155F/K247N/N249S/R318Y/R338E/T343R/R403E (protein)
chain 1: B1 chain 1
chain 2: B1 chain 2 with K67N, N69S, R138Y
B10: FIXa-R318Y/R338E/T343R/R403E/E410S (protein)
chain 1: B1 chain 1
chain 2: B1 chain 2 with R138Y, E230S
B11: FIXa-R338E/T343R/R403E (protein)
chain 1: B1 chain 1
chain 2: B1 chain 2
B12: FIXa-D104N/K106S/R318Y/R338E/E410N (mature FIX numbering) (protein)
chain 1: B1 chain 1 with D104N, K106S
chain 2: B1 chain 2 with R138Y, R163T, E223R, E230N
B13: FIXa Y155F/R318Y/R338E/T343R/R403E (protein)
chain 1: B1 chain 1
chain 2: B1 chain 2 with R138Y
B14: FIXa Y155F/K247N/N249S/R338E/R403E/E410N (protein)
chain 1: B1 chain 1
chain 2: B1 chain 2 with K67N, N69S, R163T, E230N
B15: FIXa-A103N/N105S/R318Y/R338E/R403E/E410N (mature FIX numbering) (protein)
chain 1: B1 chain 1 with A103N, N105S
chain 2: B1 chain 2 with R138Y, R163T, E230N
B16: FIXa R318Y/R338E/T343R/R403E (protein)
chain 1: B1 chain 1
chain 2: B1 chain 2 with R138Y
B17: FIXa-D203N/F205T/R318Y/E410N (mature FIX numbering) (protein)
chain 1: B1 chain 1
chain 2: B1 chain 2 with D23N, F25T, R138Y, E158R, R163T, E223R, E230N
B18: FIXa Y155F/R318Y/R338E/T343R/E410N (protein)
chain 1: B1 chain 1
chain 2: B1 chain 2 with R138Y, E223R, E230N
B19: FIXa-K228N/R318Y/E410N (mature FIX numbering) (protein)
chain 1: B1 chain 1
chain 2: B1 chain 2 with K48N, R138Y, E158R, R163T, E223R, E230N
B20: FIXa-R318Y/R403E/E410N (mature FIX numbering) (protein)
chain 1: B1 chain 1
chain 2: B1 chain 2 with R138Y, E158R, R163T, E230N
B21: FIXa-R338E/T343R/E410N (protein)
chain 1: B1 chain 1
chain 2: B1 chain 2 with E223R, E230N
B22: FIXa-Y155F/R318Y/R338E/R403E/E410N (mature FIX numbering) (protein)
chain 1: B1 chain 1
chain 2: B1 chain 2 with R138Y, R163T, E230N
B23: FIXa-R318Y/R338E/E410N (mature FIX numbering) (protein)
chain 1: B1 chain 1
chain 2: B1 chain 2 with R138Y, R163T, E223R, E230N
B24: FIXa Y155F/R318Y/T343R/R403E/E410N (protein)
chain 1: B1 chain 1
chain 2: B1 chain 2 with R138Y, E158R, E230N
B25: FIXa-A103N/N105S/Y155F/R318Y/R338E/R403E/E410N (mature FIX numbering) (protein)
chain 1: B1 chain 1 with A103N, N105S
chain 2: B1 chain 2 with R138Y, R163T, E230N
B26: FIXa-D104N/K106S/Y155F/R318Y/R338E/R403E/E410N (mature FIX numbering) (protein)
chain 1: B1 chain 1 with D104N, K106S
chain 2: B1 chain 2 with R138Y, R163T, E230N
B27: FIXa K247N/N249S/R318Y/R403E/E410N (protein)
chain 1: B1 chain 1
chain 2: B1 chain 2 with K67N, N69S, R138Y, E158R, R163T, E230N
B28: FIXa-D104N/K106S/R318Y/R338E/R403E/E410N (mature FIX numbering) (protein)
chain 1: B1 chain 1 with D104N, K106S
chain 2: B1 chain 2 with R138Y, R163T, E230N
B29: FIXa-Y155F/R318Y/R338E/E410N (mature FIX numbering) (protein)
chain 1: B1 chain 1
chain 2: B1 chain 2 with R138Y, R163T, E223R, E230N
B30: FIXa R318Y/R338E/T343R/E410N (protein)
chain 1: B1 chain 1
chain 2: B1 chain 2 with R138Y, E223R, E230N
B31: FIXa-R318Y/R338E/R403E/E410N (mature FIX numbering) (protein)
chain 1: B1 chain 1
chain 2: B1 chain 2 with R138Y, R163T, E230N
B32: FIXa-K228N/R338E/R403E (mature FIX numbering) (protein)
chain 1: B1 chain 1
chain 2: B1 chain 2 with K48N, R163T
B33: FIXa K247N/N249S/R338E/R403E/E410N (protein)
chain 1: B1 chain 1
chain 2: B1 chain 2 with K67N, N69S, R163T, E230N
B34: FIXa R338E/T343R/R403E/E410N (protein)
chain 1: B1 chain 1
chain 2: B1 chain 2 with E230N

The first data set deals with Factor X (FX), P00742.
Factor X (FX), P00742, sequence (P00742 whole entry, looked up): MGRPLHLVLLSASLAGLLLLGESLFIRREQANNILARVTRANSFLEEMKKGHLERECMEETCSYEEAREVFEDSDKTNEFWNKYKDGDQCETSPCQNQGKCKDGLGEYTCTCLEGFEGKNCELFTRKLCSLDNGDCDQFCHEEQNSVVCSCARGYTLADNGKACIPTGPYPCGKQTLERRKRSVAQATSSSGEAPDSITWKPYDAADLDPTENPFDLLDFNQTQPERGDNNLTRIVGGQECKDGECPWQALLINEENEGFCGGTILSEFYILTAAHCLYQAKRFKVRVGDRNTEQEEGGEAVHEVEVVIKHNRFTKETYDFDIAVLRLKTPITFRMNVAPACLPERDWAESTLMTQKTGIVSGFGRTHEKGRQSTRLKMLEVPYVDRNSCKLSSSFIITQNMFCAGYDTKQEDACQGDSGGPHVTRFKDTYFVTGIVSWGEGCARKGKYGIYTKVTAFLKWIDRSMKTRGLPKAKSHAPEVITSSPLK
The KM is the substrate concentration at which the rate is half of its maximum. For B1, the KM stood at 28.9 nM.
As for B2, the KM is 19.6 nM.
As to B3, the KM was 69.2 nM.
On the same count and under the same terms, as for B4, the figure is 26.4 nM.
For the protein B5, the KM amounted to 28.4 nM.
As to B6, the KM was 23.9 nM.
Still for that read-out and setting: as for B7, the figure is 59.6 nM.
Consider B8, for which the “% of WT kcat/KM” value came to 930%; the KM is 25.1 nM; the kcat/KM for FX activation (Xase: FVIIIa, PC/PS vesicles, Ca2+) was found to be 4.3e+08 M⁻¹ s⁻¹.
On to B9, for which the KM is 36.5 nM.
Still for that read-out and setting: as for B10, the figure is 19 nM; as for B11, 23.5 nM.

The target of the next data set is Factor X, P00742.
Factor X, P00742, sequence (P00742 whole entry, looked up): as above
Broadly, the kcat is the number of substrate molecules converted per active site and unit of time at saturation. In general, kcat/KM refers to the turnover number divided by the Michaelis constant. For the protein B1, the “% of WT kcat/KM” value stood at 429%, the kcat was determined as 5.2 s⁻¹ and the kcat/KM was 2e+08 M⁻¹ s⁻¹.
For B2, in that order: 651%, 5.9 s⁻¹ and 3e+08 M⁻¹ s⁻¹.
With B12, the “% of WT kcat/KM” value was 581% and the kcat/KM turned out to be 2.6e+08 M⁻¹ s⁻¹.
For the protein B13, the KM (FX activation by FIXa in Xase complex with FVIIIa, PC/PS vesicles, Ca2+) came out at 34 nM.
On to B3, for which the “% of WT kcat/KM” value amounted to 203%, the kcat came to 6.4 s⁻¹ and the kcat/KM worked out at 9.4e+07 M⁻¹ s⁻¹.
Turning to B14, the KM (FX activation by FIXa in Xase complex with FVIIIa, PC/PS vesicles, Ca2+) was found to be 48.7 nM.
B15: the “% of WT kcat/KM” value was found to be 327% and the kcat/KM was 1.5e+08 M⁻¹ s⁻¹.
B16: the KM (FX activation by FIXa in Xase complex with FVIIIa, PC/PS vesicles, Ca2+) was 44.3 nM.
B17: the “% of WT kcat/KM” value amounted to 88% and the kcat/KM stood at 3.9e+07 M⁻¹ s⁻¹.
Turning to B18, the KM (FX activation by FIXa in Xase complex with FVIIIa, PC/PS vesicles, Ca2+) came to 25.6 nM.
With B4, the “% of WT kcat/KM” value worked out at 805%, the catalytic constant (kcat) worked out at 9.8 s⁻¹ and the kcat/KM worked out at 3.7e+08 M⁻¹ s⁻¹.
Consider B19, for which the “% of WT kcat/KM” value came to 272% and the kcat/KM stood at 1.2e+08 M⁻¹ s⁻¹.
For B20 the same measures were 59% and 2.7e+07 M⁻¹ s⁻¹.
With B5, the “% of WT kcat/KM” value was found to be 886%, the kcat came out at 9.2 s⁻¹ and the kcat/KM came out at 4.1e+08 M⁻¹ s⁻¹.
Take B21: the KM stood at 35.5 nM.
For the protein B6, the “% of WT kcat/KM” value stood at 629%, the kcat worked out at 6.8 s⁻¹ and the kcat/KM worked out at 2.9e+08 M⁻¹ s⁻¹.
For B22, the “% of WT kcat/KM” value was determined as 418% and the kcat/KM was 1.9e+08 M⁻¹ s⁻¹.
For B23, in that order: 770% and 3.4e+08 M⁻¹ s⁻¹.
As for B7, the “% of WT kcat/KM” value turned out to be 184%, the kcat was found to be 4.7 s⁻¹ and the kcat/KM was found to be 8.5e+07 M⁻¹ s⁻¹.
Take B24: the KM (FX activation by FIXa in Xase complex with FVIIIa, PC/PS vesicles, Ca2+) is 34 nM.
With B25, the “% of WT kcat/KM” value was 283% and the kcat/KM came to 1.3e+08 M⁻¹ s⁻¹.
Consider B26, for which the “% of WT kcat/KM” value is 394% and the kcat/KM worked out at 1.8e+08 M⁻¹ s⁻¹.
Consider B8, for which the kcat worked out at 10.8 s⁻¹.
For B27, the KM (FX activation by FIXa in Xase complex with FVIIIa, PC/PS vesicles, Ca2+) came to 111 nM.
For the protein B9, the “% of WT kcat/KM” value is listed as 630%, the kcat worked out at 10.6 s⁻¹ and the kcat/KM is 2.9e+08 M⁻¹ s⁻¹.
For B28, the “% of WT kcat/KM” value amounted to 377% and the kcat/KM was 1.7e+08 M⁻¹ s⁻¹.
For B29 the same measures were 835% and 3.7e+08 M⁻¹ s⁻¹.
In the case of B30, the KM (FX activation by FIXa in Xase complex with FVIIIa, PC/PS vesicles, Ca2+) stood at 16.4 nM.
For B10, the “% of WT kcat/KM” value is 962%, the kcat came out at 7.6 s⁻¹ and the kcat/KM turned out to be 4.4e+08 M⁻¹ s⁻¹.
Turning to B31, the “% of WT kcat/KM” value is on record as 262% and the kcat/KM came to 1.2e+08 M⁻¹ s⁻¹.
For B32, the “% of WT kcat/KM” value turned out to be 108% and the kcat/KM was 4.8e+07 M⁻¹ s⁻¹.
B33: the KM (FX activation by FIXa in Xase complex with FVIIIa, PC/PS vesicles, Ca2+) stood at 25 nM.
Take B11: the “% of WT kcat/KM” value came to 663%, the kcat was determined as 6.9 s⁻¹ and the kcat/KM was 3.1e+08 M⁻¹ s⁻¹.
B34: the KM (FX activation by FIXa in Xase complex with FVIIIa, PC/PS vesicles, Ca2+) amounted to 34.7 nM.
